Read-outs that look alike come from different tables or passages of the source.
T1: his-tagged cynomolgus monkey PVRIG (cyno-PVRIG-his) recombinant protein (cynomolgus monkey)
T1 construct: expressed in HEK293, purified by Ni-NTA; also called Monkey PVRIG-his; cynomolgus monkey PVRIG recombinant protein
T1 chain: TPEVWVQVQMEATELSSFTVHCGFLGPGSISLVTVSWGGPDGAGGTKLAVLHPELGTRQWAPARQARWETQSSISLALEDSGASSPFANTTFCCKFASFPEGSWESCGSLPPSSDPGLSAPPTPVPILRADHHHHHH

T2: his-tagged human PVRIG (h-PVRIG-his) recombinant protein (human, UniProt Q6DKI7 41-171, limits assumed)
T2 construct: bought from Acrobiosystems; also called Human PVRIG-his; human PVRIG recombinant protein; not shown: his tag
T2 sequence (looked up): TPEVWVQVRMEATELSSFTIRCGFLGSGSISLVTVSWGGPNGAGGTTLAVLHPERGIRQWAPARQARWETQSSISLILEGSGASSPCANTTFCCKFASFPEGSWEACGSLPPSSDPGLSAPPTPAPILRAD

T3: human PVRIG expressed on cells (human, UniProt Q6DKI7 41-326)
T3 construct: whole, on cells; also called Human PVRIG FACS; cells overexpressing human PVRIG
T3 sequence (looked up): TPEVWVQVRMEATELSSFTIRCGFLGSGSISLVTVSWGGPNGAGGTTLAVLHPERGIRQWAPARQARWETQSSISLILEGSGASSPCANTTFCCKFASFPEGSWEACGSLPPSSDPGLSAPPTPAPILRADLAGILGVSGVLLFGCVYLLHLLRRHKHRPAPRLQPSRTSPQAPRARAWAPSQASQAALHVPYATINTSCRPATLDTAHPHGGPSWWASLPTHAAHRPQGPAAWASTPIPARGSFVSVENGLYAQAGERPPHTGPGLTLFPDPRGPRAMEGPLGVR

T4: cynomolgus monkey PVRIG expressed on cells (cynomolgus monkey, UniProt A0A2K5WVV8 1-322)
T4 construct: whole, on cells; also called Monkey PVRIG FACS; cells overexpressing cynomolgus monkey PVRIG
T4 sequence: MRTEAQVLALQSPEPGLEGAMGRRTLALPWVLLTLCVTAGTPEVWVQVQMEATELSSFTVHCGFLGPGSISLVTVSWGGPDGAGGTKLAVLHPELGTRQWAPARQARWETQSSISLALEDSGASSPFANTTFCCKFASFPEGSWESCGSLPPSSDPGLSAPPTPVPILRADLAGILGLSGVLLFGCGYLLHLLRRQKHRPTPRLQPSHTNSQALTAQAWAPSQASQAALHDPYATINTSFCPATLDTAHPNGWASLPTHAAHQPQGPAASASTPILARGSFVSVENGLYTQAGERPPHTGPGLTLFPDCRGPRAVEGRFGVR

B1: humanized anti-PVRIG/TIGIT bispecific antibody 1708-20H5 (bispecific antibody, human IgG4 S228P, kappa)
heavy: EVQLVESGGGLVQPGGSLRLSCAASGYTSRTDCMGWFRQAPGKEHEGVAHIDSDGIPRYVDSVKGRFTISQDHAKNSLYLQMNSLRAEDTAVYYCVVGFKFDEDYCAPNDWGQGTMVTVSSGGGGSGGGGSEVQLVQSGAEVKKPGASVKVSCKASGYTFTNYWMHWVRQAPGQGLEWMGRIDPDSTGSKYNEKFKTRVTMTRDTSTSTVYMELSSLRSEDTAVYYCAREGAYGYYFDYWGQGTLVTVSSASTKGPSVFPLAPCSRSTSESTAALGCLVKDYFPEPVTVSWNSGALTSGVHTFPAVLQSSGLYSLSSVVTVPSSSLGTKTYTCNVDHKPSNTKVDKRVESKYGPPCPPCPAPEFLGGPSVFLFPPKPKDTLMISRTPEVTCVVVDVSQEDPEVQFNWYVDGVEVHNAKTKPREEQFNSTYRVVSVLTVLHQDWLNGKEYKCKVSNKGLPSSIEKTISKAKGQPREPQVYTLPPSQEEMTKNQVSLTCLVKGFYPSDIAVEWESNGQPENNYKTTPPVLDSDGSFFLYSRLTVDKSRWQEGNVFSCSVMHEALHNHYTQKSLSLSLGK
light: DIQMTQSPSSLSASVGDRVTITCRASENIYSYLAWYQQKPGKSPKLLIYNARTLAEGVPSRFSGSGSGTDFTLTISSLQPEDFATYYCQYHSGSPLPFGGGTKVEIKRTVAAPSVFIFPPSDEQLKSGTASVVCLLNNFYPREAKVQWKVDNALQSGNSQESVTEQDSKDSTYSLSSTLTLSKADYEKHKVYACEVTHQGLSSPVTKSFNRGEC
B2: humanized anti-PVRIG/TIGIT bispecific antibody 1708-30H2 (bispecific antibody, human IgG4 S228P, kappa)
heavy: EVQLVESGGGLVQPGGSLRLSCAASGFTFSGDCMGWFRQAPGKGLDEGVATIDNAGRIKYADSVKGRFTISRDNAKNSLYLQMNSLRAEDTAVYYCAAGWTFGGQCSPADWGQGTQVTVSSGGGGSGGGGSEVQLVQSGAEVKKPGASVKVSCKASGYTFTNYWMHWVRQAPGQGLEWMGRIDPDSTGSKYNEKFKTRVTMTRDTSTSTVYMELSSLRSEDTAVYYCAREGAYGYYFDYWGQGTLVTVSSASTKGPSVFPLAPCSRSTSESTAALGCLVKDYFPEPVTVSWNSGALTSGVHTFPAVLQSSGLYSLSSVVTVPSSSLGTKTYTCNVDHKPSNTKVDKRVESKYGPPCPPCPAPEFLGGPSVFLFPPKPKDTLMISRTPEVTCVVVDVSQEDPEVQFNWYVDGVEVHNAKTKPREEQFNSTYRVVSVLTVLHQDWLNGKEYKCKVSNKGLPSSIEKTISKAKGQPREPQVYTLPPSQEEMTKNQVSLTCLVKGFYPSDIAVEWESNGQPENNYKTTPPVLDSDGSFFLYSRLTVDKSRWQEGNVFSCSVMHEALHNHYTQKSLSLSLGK
light: B1 light
B3: anti-PVRIG antibody 38 (antibody, human IgG4 S228P, F234A L235A, V domains shown)
VH: QVQLVESGGGSVQAGGSLRLSCAASPSTYGPSDMAWFRQAPGKQREGVATISAAGRLTYYTDSVRGRFTISRDNAKNTMYLQMNSLKPEDTAMYYCAADFAGGSSLFADYKYWGQGTQVTVSS
notes: no light chain
B4: anti-PVRIG antibody 151 (antibody, human IgG4 S228P, F234A L235A, V domains shown)
VH: HVQLVESGGGSVQAGGSLRLSCVASASGFTYRPYCMAWFRQAPGKEREAVAGIDIFGGTTYADSVKGRFTASRDNAGFSLFLQMNDLKPEDTAMYYCAAGDSPDGRCPPLGQGLNYWGQGTQVTVSS
notes: no light chain
B5: anti-PVRIG antibody 39 (antibody, human IgG4 S228P, F234A L235A, V domains shown)
VH: QVQLVESGGGSVQAGGSLRLSCAASRYTSRTDCMGWFRQAPGKEREGVAHIDSDGIPRYVESVKGRFTISQDHAKNTLYLQMNSLKPEDSATYYCVVGFKFGDYCAPNDWGQGTQVTVSS
notes: no light chain
B6: anti-PVRIG antibody 30 (antibody, human IgG4 S228P, F234A L235A, V domains shown)
VH: HVQLVESGGGSVQAGGSLRLSCEASGYSYSGDCMGWFRRAPGKERDEGVATIDNAGRIKYADSVKGRFTISHGNGKYILYLQMNSLKPEDTDMYYCAAGWTFGGNCSPADWGQGTQVTVSS
notes: no light chain
B7: positive antibody Tab5 (antibody, human IgG4 S228P, kappa, F234A L235A, V domains shown)
VH: EVQLVESGGGVVKPGGSLRLSCAASGFTFGTSSMNWVRQAPGKGLEWVAVISFDGTEIHYADSVKGRFTISRDNSKSTVFLQMNSLRPDDTALYYCAKGSGNIYFYSGMDVWGQGTTVTVSS
VL: DIQMTQSPSTLSASVGDRVTITCRAGQSISGWLAWFQQKPGKAPNLLIYETSTLESGVPSRFSGSGSGTEYTLTISSLQPDDFATYYCQQYYSYPLTFGQGTKVEIKR
notes: Variable regions of CPA.7.021 (WO2016134333A1) on human IgG4 (S228P/F234A/L235A/K447A) and human kappa constant regions

Legend:
[1] = target: T1, his-tagged cynomolgus monkey PVRIG …; experiment: ELISA, coated antigen
Protocol: (§1) A human, cynomolgus monkey, or mouse PVRIG protein (at a concentration of 1 μg/mL) was coated on a 96-well microplate at 100 μL per well, and incubated overnight at 4° C. The plate was washed three times with wash buffer at 250 μL per well. For each wash, the plate was shaken for 10 s to ensure adequate cleaning. A blocking solution (PBS+0.05% Tween20+1% BSA) was added at 300 μL/well, and the plate was incubated at room temperature for 1 h. The plate was washed three times with wash buffer at 250 μL per well. For each wash, the plate was shaken for 10 s to ensure adequate cleaning. Dilutions of the test anti-PVRIG antibodies were added at 100 μL/well. The plate was incubated at 37° C. for 1 h. The plate was washed three times with wash buffer at 250 μL per well. The […] anti-human IgG secondary antibody (Sigma, A8667) was added at 100 μL per well. The plate was incubated at 37° C. for 1 h. The plate was washed three times with wash buffer at 250 μL per well. TMB was added at 100 μL/well, and the plate was incubated in the dark for 15 min. 0.16 M sulfuric acid was added at 50 μL/well. The OD values at 450 nm were read by using a Thermo MultiSkanFc microplate reader, and the EC₅₀ values of the binding of the anti-PVRIG antibodies to PVRIG were calculated.
(§2) Binding of the humanized anti-PVRIG/TIGIT bispecific antibodies to human and cynomolgus monkey PVRIG and their blocking of the ligand of human PVRIG were detected according to the methods of Examples 4, 5 and 6.

[2] = target: T2, his-tagged human PVRIG (h-PVRIG-his) …; experiment: ELISA, coated antigen
Protocol: as §1, §2

[3] = target: T3, human PVRIG expressed on cells; experiment: FACS, cells overexpressing target
Protocol: (§3) The expression plasmid carrying human or cynomolgus monkey PVRIG gene sequence was transfected into HEK293 cells, and the over-expressing stable transfection monoclonal cell strain was obtained by antibiotic screening and infinite dilution. Overexpressing cells were seeded into a 96-well plate at 2×10⁵ cells/per well. The cells were centrifuged at 300 g for 5 min, the supernatant was then removed, 100 μL of the test antibody was added, and the mixture was incubated at 4° C. for 1 h. The mixture was centrifuged, the supernatant was removed, the plate was washed 3 times with 200 μL of wash buffer (PBS+2% FBS), and then 100 μL of an anti-human IgG secondary antibody (Invitrogen, A-11013) labeled with Alexa Fluor 488 diluted at 1:500 was added. The mixture was incubated at 4° C. for 1 h. The plate was centrifuged, and the supernatant was removed. The plate was washed 3 times with 200 μL of wash buffer (PBS+2% FBS). The cells were resuspended in 100 μL of PBS and tested on a flow cytometer (BD FACS Calibur or BD FACS Canto_II).
as §2

[4] = target: T3, human PVRIG expressed on cells; experiment: FACS, HEK293 cells overexpressing target
Source text: (§4) A flow cytometer (FACS) was used to detect binding properties of anti-PVRIG antibodies. A cell strain overexpressing human or cynomolgus monkey PVRIG was constructed, and after the addition of the antibody, the activity of the binding of the antibody to the antigen was detected by the addition of a secondary antibody.
as §3

[5] = target: T4, cynomolgus monkey PVRIG expressed on …; experiment: FACS, HEK293 cells overexpressing target
Source text: as §4, §3

[6] = target: T3, human PVRIG expressed on cells; experiment: cell-based or functional assay
[7] = target: T3, human PVRIG expressed on cells; experiment: cell-based or functional assay; remark: listed apart in the source
[8] = target: T3, human PVRIG expressed on cells; experiment: cell-based or functional assay; remark: listed apart in the source

Row | Binder | EC50 [1] | EC50 [2] | EC50 [3] | EC50 [4] | EC50 [5] | reporter gene activity, fold of the positive antibody Tab5 [6] | NK92 killing of K562, killing activity (%), 20 nM antibody [7] | NK92 killing of K562, killing activity (%), 100 nM antibody [7] | NK92 killing of K562, killing activity (%), 4 nM antibody [8] | NK92 killing of K562, killing activity (%), 20 nM antibody [8] | NK92 killing of K562, killing activity (%), 100 nM antibody [8] | binding result [5] | binding result [1]
1 | B1 | 0.144 nM | 2.47 nM | 0.075 nM |  |  |  |  |  |  |  |  |  | 
2 | B2 | 0.184 nM | 0.32 nM | 0.056 nM |  |  |  |  |  |  |  |  |  | 
3 | B3 |  |  |  | 0.24 nM | 0.34 nM | 3.7 to 18.5 fold | 29% | 27% |  |  |  |  | 
4 | B4 |  |  |  | 0.01 nM | 2.23 nM | 3.7 to 18.5 fold | 35% | 33% |  |  |  |  | 
5 | B5 |  |  |  | 0.004 nM | 6.97 nM |  | 32% | 30% |  |  |  |  | 
6 | B6 |  |  |  |  | 0.02 nM |  | 36% | 39% | 10.4% | 11.9% | 13.3% |  | 
7 | B7 |  | 1.41 nM | 0.789 nM | 2.13 nM |  |  | 32% | 32% | 5.9% | 7.9% | 10% | no binding | no binding

Reference: patent US20240376207A1 (JIANGSU HENGRUI PHARMACEUTICALS, published 2024)
